Experimental data taken from US20240270839A1 (ELPISCIENCE SUZHOU BIOPHARMA, published 2024).

What was measured:
[1] = target: human CLDN18.2 (hCLDN18.2), expressed on cells (human); assay: cell-based or functional assay
[2] = target: human CLDN18.2 (hCLDN18.2), expressed on cells (human); assay: cell-based or functional assay; remark: listed apart in the source
[3] = target: T1, human CLDN18.2 (hCLDN18.2), expressed on cells (human); assay: FACS, SNU620 cells over-expressing hCLDN18.2
T1 construct: the constructs in the cell lines are not described; also called Claudin18.2; HEK293-hCLDN18.2

Binder | PBMC VS NUGC4 ADCC (EC50 nM) [2] | EC50 [3] | further results
hu22E12.H1L2-ADE (antibody, human IgG1) heavy: QVQLVQSGAEVKKPGASVKVSCKASGYTFTNWVHWVRQAPGQGLEWMGEINPTNARSNYNEKFKKRVTMTRDTSTSTVYMELSSLRSEDTAVYYCARIYYGNSFAHWGQGTLVTVSSASTKGPSVFPLAPSSKSTSGGTAALGCLVKDYFPEPVTVSWNSGALTSGVHTFPAVLQSSGLYSLSSVVTVPSSSLGTQTYICNVNHKPSNTKVDKKVEPKSCDKTHTCPPCPAPELLAGPDVFLFPPKPKDTLMISRTPEVTCVVVDVSHEDPEVKFNWYVDGVEVHNAKTKPREEQYNSTYRVVSVLTVLHQDWLNGKEYKCKVSNKALPAPEEKTISKAKGQPREPQVYTLPPSREEMTKNQVSLTCLVKGFYPSDIAVEWESNGQPENNYKTTPPVLDSDGSFFLYSKLTVDKSRWQQGNVFSCSVMHEALHNHYTQKSLSLSPGK VL: DIVMTQSPDSLAVSLGERATINCKSSQSLLNAGNQKNYLTWYQQKPGQPPKLLIYWSSTRESGVPDRFSGSGSGTDFTLTISSLQAEDVAVYHCQNNYYYPLTFGGGTKLEIK | – | – | ADCC EC50 (nM), NK-CD16a effector cells [1]: 0.00765 nM
hu22E12.H1L2-DE (antibody, human IgG1) heavy: not shown VL: DIVMTQSPDSLAVSLGERATINCKSSQSLLNAGNQKNYLTWYQQKPGQPPKLLIYWSSTRESGVPDRFSGSGSGTDFTLTISSLQAEDVAVYHCQNNYYYPLTFGGGTKLEIK | – | – | ADCC EC50 (nM), NK-CD16a effector cells [1]: 0.00637 nM
hu22E12.H1L2-DLE (antibody, human IgG1) heavy: QVQLVQSGAEVKKPGASVKVSCKASGYTFTNWVHWVRQAPGQGLEWMGEINPTNARSNYNEKFKKRVTMTRDTSTSTVYMELSSLRSEDTAVYYCARIYYGNSFAHWGQGTLVTVSSASTKGPSVFPLAPSSKSTSGGTAALGCLVKDYFPEPVTVSWNSGALTSGVHTFPAVLQSSGLYSLSSVVTVPSSSLGTQTYICNVNHKPSNTKVDKKVEPKSCDKTHTCPPCPAPELLGGPDVFLFPPKPKDTLMISRTPEVTCVVVDVSHEDPEVKFNWYVDGVEVHNAKTKPREEQYNSTYRVVSVLTVLHQDWLNGKEYKCKVSNKALPLPEEKTISKAKGQPREPQVYTLPPSREEMTKNQVSLTCLVKGFYPSDIAVEWESNGQPENNYKTTPPVLDSDGSFFLYSKLTVDKSRWQQGNVFSCSVMHEALHNHYTQKSLSLSPGK VL: DIVMTQSPDSLAVSLGERATINCKSSQSLLNAGNQKNYLTWYQQKPGQPPKLLIYWSSTRESGVPDRFSGSGSGTDFTLTISSLQAEDVAVYHCQNNYYYPLTFGGGTKLEIK | – | – | ADCC EC50 (nM), NK-CD16a effector cells [1]: 0.00503 nM
ch99H8 (antibody, V domains shown) VH: QVQLQQSGPELVKPGASVKLSCKASGYSFTNFDINWVKQRPGQGLQWIGRLYPRDGTTTYNEKFKGKASLTVDTSSTTSYMDLHSLTSEDSAVYFCVRGNYGNSFAYWGQGTLVTVSA VL: DIVMTQSPSSLTVTAREKVIMNCKSSQSLFNSGNQKNYLTWYQQKPGQSPKLLIYWASTRQSGVPDRFTGSGSGTDFTLTISTVQAEDLAVYFCQNGFSFPYTFGGGTKLEMN | 3.31 nM | – | –
hu35B4.H2L3 (antibody, V domains shown, humanized 35B4) VH: EVQLLESGGGLVQPGGSLRLSCAASGFTLSSYALSWVRQAPGKGLEWVSYISNLGGSTFYPDTVKGRFTISRDNSKNTLYLQMNSLRAEDTAVYYCATHLYNYDAFASWGQGTLVTVSS VL: DIQLTQSPSFLSASVGDRVTITCRASSSVNYIHWYQQKPGKSPKALIYATSNLASGVPSRFSGSGSGTEYTLTISSLQPEDFATYYCQQWNSNPLTFGQGTKLEIK | – | 0.413 nM | –
hu35B4.H2L4 (antibody, V domains shown, humanized 35B4) VH: EVQLLESGGGLVQPGGSLRLSCAASGFTLSSYALSWVRQAPGKGLEWVSYISNLGGSTFYPDTVKGRFTISRDNSKNTLYLQMNSLRAEDTAVYYCATHLYNYDAFASWGQGTLVTVSS VL: DIQLTQSPSFLSASVGDRVTMTCRASSSVNYIHWYQQKPGKSPKALIYATSNLASGVPSRFSGSGSGTEYTLTISSVQPEDFATYYCQQWNSNPLTFGQGTKLEIK | – | 0.367 nM | –
ch60F11 (antibody, V domains shown) VH: QVQLQQPGAELVKPGASVKLSCKASGYTFTSYWMHWVKQRPGQGLEWIGMIHPNSGSTNYNEKFKSKATLTVDKSSSTAYMQLSSLTSEDSAVYYCARMGLGNAMDYWGQGTSVTVSS VL: DIVMTQSPSSLTVTAGEKVTLSCKSSQSLLNSGNQRNYLTWYQQKPGQPPKLLIYWASTRESGVPDRFTGSGSGTDFTLTISSVQAEDLAVYYCQNAYSYPLTFGAGTKLELK | 8.69 nM | – | –
ch97A9 (antibody, V domains shown) VH: QVQLQQSGPELVKPGASMKLSCKASGYSFTRNDINWVKQRPGQGLEWIGLSYPRDGTTQYNGKFKGKATLTVDTSSSTAYMELRSLTSEDSAVYFCARGYYGNSFAYWGQGTLVTVSA VL: DIVMTQSPSSLTVTAGEKVTMSCKSSQSLLNSGNQKNYLTWYQQKPGQPPKLLIYWASTRESGVPDRFTGSGSGTYFTLTISSVQAEDLAVYFCQNDYYFPYTFGGGTKLEIK | 6.93 nM | – | –
ch33G12 (antibody, V domains shown) VH: EVKLVESGGGLVQPGGSLKLSCAASGFTFSRYAMSWVRQTPEKRLEWVAYISIGGTTYYPDTIKGRFTISRDNAKNTLYLQMSSLKSEDTAMYYCTRHYYGHDVMDYWGQGTSVTVSS VL: QIVLSQSPTILSASPGEKVTMTCRATSSVSYMHWFQQKPGSSPKPWIYATSNLASGVPARFSGSGSGTSYSLTISRVEAEDAATYYCQQWSRNPLTFGAGTKLELK | 0.458 nM | – | –

Second part, led by results:

PBMC VS NUGC4 ADCC (EC50 nM) [2] | EC50 [3] | Binder | further results
– | 0.297 nM | hu35B4.H3L2 (antibody, V domains shown, humanized 35B4) VH: EVQLLESGGGLVQPGGSLRLSCAASGFTLSSYALSWVRQAPGKGLEWVAYISNLGGSTFYPDTVKGRFTISRDNSKNTLYLQMNSLRAEDTAVYYCATHLYNYDAFASWGQGTLVTVSS VL: DIQLTQSPSFLSASVGDRVTITCRASSSVNYIHWYQQKPGKAPKALIYATSNLASGVPSRFSGSGSGTEYTLTISSLQPEDFATYYCQQWNSNPLTFGQGTKLEIK | –
– | 0.35 nM | hu35B4.H3L4 (antibody, V domains shown, humanized 35B4) VH: EVQLLESGGGLVQPGGSLRLSCAASGFTLSSYALSWVRQAPGKGLEWVAYISNLGGSTFYPDTVKGRFTISRDNSKNTLYLQMNSLRAEDTAVYYCATHLYNYDAFASWGQGTLVTVSS VL: DIQLTQSPSFLSASVGDRVTMTCRASSSVNYIHWYQQKPGKSPKALIYATSNLASGVPSRFSGSGSGTEYTLTISSVQPEDFATYYCQQWNSNPLTFGQGTKLEIK | –
– | 0.258 nM | hu35B4.H3L1 (antibody, V domains shown, humanized 35B4) VH: EVQLLESGGGLVQPGGSLRLSCAASGFTLSSYALSWVRQAPGKGLEWVAYISNLGGSTFYPDTVKGRFTISRDNSKNTLYLQMNSLRAEDTAVYYCATHLYNYDAFASWGQGTLVTVSS VL: DIQLTQSPSFLSASVGDRVTITCRASSSVNYIHWYQQKPGKAPKLLIYATSNLASGVPSRFSGSGSGTEFTLTISSLQPEDFATYYCQQWNSNPLTFGQGTKLEIK | –
– | 0.319 nM | hu35B4.H3L3 (antibody, V domains shown, humanized 35B4) VH: EVQLLESGGGLVQPGGSLRLSCAASGFTLSSYALSWVRQAPGKGLEWVAYISNLGGSTFYPDTVKGRFTISRDNSKNTLYLQMNSLRAEDTAVYYCATHLYNYDAFASWGQGTLVTVSS VL: DIQLTQSPSFLSASVGDRVTITCRASSSVNYIHWYQQKPGKSPKALIYATSNLASGVPSRFSGSGSGTEYTLTISSLQPEDFATYYCQQWNSNPLTFGQGTKLEIK | –
